Consider three variants from PMC12212125, “Constitutively active Arabidopsis cryptochrome two alleles identified using yeast selection and deep mutational scanning” (The Journal of Biological Chemistry, 2025).

The chains are these.
B1: Arabidopsis cryptochrome 2, truncated CRY2(535) (residues 1-535), wild type [Arabidopsis thaliana] / itself (parent)
chain: MKMDKKTIVWFRRDLRIEDNPALAAAAHEGSVFPVFIWCPEEEGQFYPGRASRWWMKQSLAHLSQSLKALGSDLTLIKTHNTISAILDCIRVTGATKVVFNHLYDPVSLVRDHTVKEKLVERGISVQSYNGDLLYEPWEIYCEKGKPFTSFNSYWKKCLDMSIESVMLPPPWRLMPITAAAEAIWACSIEELGLENEAEKPSNALLTRAWSPGWSNADKLLNEFIEKQLIDYAKNSKKVVGNSTSLLSPYLHFGEISVRHVFQCARMKQIIWARDKNSEGEESADLFLRGIGLREYSRYICFNFPFTHEQSLLSHLRFFPWDADVDKFKAWRQGRTGYPLVDAGMRELWATGWMHNRIRVIVSSFAVKFLLLPWKWGMKYFWDTLLDADLECDILGWQYISGSIPDGHELDRLDNPALQGAKYDPEGEYIRQWLPELARLPTEWIHHPWDAPLTVLKASGVELGTNYAKPIVDIDTARELLAKAISRTREAQIMIGAAPDEIVADSFEALGANTIKEPGLCPSVSSNDQQVPSAV

The variants in the experiment derive from B1. In words: yeast two-hybrid, quantitative GalUAS-lacZ (beta-galactosidase) reporter assay. As to conditions: with itself, strain AH109, read off a plot.

As to MKMDKKTIVWFRRDLRIEDNPALAAAAHEGSVFPVFIWCPEEEGQFYPGRASRWWMKQSLAHLSQSLKALGSDLTLIKTHNTISAILDCIRVTGATKVVFNHLYDPVSLVRDHTVKEKLVERGISVQSYNGDLLYEPWEIYCEKGKPFTSFNSYWKKCLDMSIESVMLPPPWRLMPITAAAEAIWACSIEELGLENEAEKPSNALLTRAWSPGWSNADKLLNEFIEKQLIDYAKNSKKVVGNSTSLLSPYLHFGEISVRHVFQCARMKQIIWARDKNSEGEESADLFLRGIGLREYSRYICFNFPFTHEQSLLSHLRFFPWDADVDKFKAWRQGRTGYPLVDAGMRELWATGWMHNRIRVIVSSFAVKFLLLPAKWGMKYFWDTLLDADLECDILGWQYISGSIPDGHELDRLDNPALQGAKYDPEGEYIRQWLPELARLPTEWIHHPWDAPLTVLKASGVELGTNYAKPIVDIDTARELLAKAISRTREAQIMIGAAPDEIVADSFEALGANTIKEPGLCPSVSSNDQQVPSAV [chain 1 W374A], the response runs as follows: (dark, parent: 25) 170 Miller units; (light, parent: 220) 180 Miller units.

As for MKMDKKTIVWFRRDLRIEDNPALAAAAHEGSVFPVFIWCPEEEGQFYPGRASRWWMKQSLAHLSQSLKALGSDLTLIKTHNTISAILDCIRVTGATKVVFNHLYDPVSLVRDHTVKEKLVERGISVQSYNGDLLYEPWEIYCEKGKPFTSFNSYWKKCLDMSIESVMLPPPWRLMPITAAAEAIWACSIEELGLENEAEKPSNALLTRAWSPGWSNADKLLNEFIEKQLIDYAKNSKKVVGNSTSLLSPYLHFGEISVRHVFQCARMKQIIWARDKNSEGEESADLFLRGIGLREYSRYICFNFPFTHEQSLLSHLRFFPWDADVDKFKAWRQGRTGYPLVDAGMRELWATGWMHNRIRVIVSSFAVKFLLLPWKWGMKYFWDTLLDADLECAILGWQYISGSIPDGHELDRLDNPALQGAKYDPEGEYIRQWLPELARLPTEWIHHPWDAPLTVLKASGVELGTNYAKPIVDIDTARELLAKAISRTREAQIMIGAAPDEIVADSFEALGANTIKEPGLCPSVSSNDQQVPSAV [chain 1 D393A], the response (dark, parent: 25) amounted to 160 Miller units and the response (light, parent: 220) stood at 180 Miller units.

For MKMDKKTIVWFRRDLRIEDNPALAAAAHEGSVFPVFIWCPEEEGQFYPGRASRWWMKQSLAHLSQSLKALGSDLTLIKTHNTISAILDCIRVTGATKVVFNHLYDPVSLVRDHTVKEKLVERGISVQSYNGDLLYEPWEIYCEKGKPFTSFNSYWKKCLDMSIESVMLPPPWRLMPITAAAEAIWACSIEELGLENEAEKPSNALLTRAWSPGWSNADKLLNEFIEKQLIDYAKNSKKVVGNSTSLLSPYLHFGEISVRHVFQCARMKQIIWARDKNSEGEESADLFLRGIGLREYSRYICFNFPFTHEQSLLSHLRFFPWDADVDKFKAWRQGRTGYPLVDAGMRELWATGWMHNRIRVIVSSFAVKFLLLPWKWGMKYFWDTLLDADLECSILGWQYISGSIPDGHELDRLDNPALQGAKYDPEGEYIRQWLPELARLPTEWIHHPWDAPLTVLKASGVELGTNYAKPIVDIDTARELLAKAISRTREAQIMIGAAPDEIVADSFEALGANTIKEPGLCPSVSSNDQQVPSAV [chain 1 D393S], the response is, setting by setting: (dark, parent: 25) 170 Miller units; (light, parent: 220) 160 Miller units.
